Results: patent US20110045570

How the values were obtained:
[1] = target: T1, N-succinyl-Ala-Ala-Pro-Met-p-nitroanilide
T1 chain: AAPM

[2] = target: T2, butyroxycarboxy-Leu-Ser-Thr-Arg-p-nitroanilide
T2 chain: LSTR

[3] = target: T3, N-glutaryl-Ala-Ala-Pro-Leu-p-nitroanilide
T3 chain: AAPL

[4] = target: T4, N-p-tosyl-Gly-Pro-Lys-p-nitroanilide
T4 chain: GPK

[5] = target: T5, N-carbobenzoxy-Pro-citrulline-p-nitroanilide
T5 chain: P

[6] = target: T6, N-succinyl-Ala-Ala-Ala-p-nitroanilide
T6 chain: AAA

[7] = target: T7, N-carboxybenzoxy-Phe-Val-Arg-p-nitroanilide
T7 chain: FVR

[8] = target: T8, N-succinyl-Gly-Gly-Phe-p-nitroanilide
T8 chain: GGF

[9] = target: T9, N-succinyl-Ala-Ala-Pro-Phe-p-nitroanilide
T9 chain: AAPF

[10] = target: T10, N-succinyl-Ala-Ala-p-nitroanilide
T10 chain: AA

[11] = target: T11, N-succinyl-Ala-Ala-Val-Ala-p-nitroanilide
T11 chain: AAVA

[12] = target: T12, N-methoxysuccinyl-Ala-Ile-Pro-Met-p-nitroanilide
T12 chain: AIPM

B1: alkaline protease ALTP (protein)
chain: AQSTPWGVTRVQAPNVWNRGFTGSGVRVAVLDTGIHSSHEDLTVSGGYSVFGDSPYNDVQGHGTHVAGTIAARNNSVGVIGVAYNAQLYAVKVLNNQGSGTLAGIAQGIEWARQNNMHVINMSLGGTSGSTTLQNAVNAAYNAGILVVAAAGNSGNSAGTGDNVGFPARYPNAMAVAATTSGNVRASFSSTGPAVEIAAPGQDINSTYPTNTYRSLNGTSMAAPHVAGVAALLKSARPAVTAAGIRNAMNSTALNLGNSNWYGNGLVRANNALDMVLSY
For B1, the Relative activity (%) [1] was 74%, the “activity to synthetic substrate (p-nitroaniline liberated)” value (shortened to “activity … (p-nitroaniline liberated)”) [2] was “It showed activity to, besides the foregoing synthetic substrates, butyroxycarboxy-Leu-Ser-Thr-Arg-p-nitroanilide (LSTR)” and the Relative activity (%) [3] was 91%. The “activity … (p-nitroaniline liberated)” value [4] was “It showed activity to ... N-p-tosyl-Gly-Pro-Lys-p-nitroanilide (To-GPK)”, the “initial cleavage site (LC/MS/MS of digestion fragments)” value (acidic insulin B-chain) was “alkaline protease ALTP of the invention first cleaves Leu-Tyr” and the “peptide bonds cleaved within 24 hours (300 ng enzyme, LC/MS/MS)” value (acidic insulin B-chain) was 26 peptide bonds of 29 peptide bonds except Phe-Val and Thr-Pro-Lys bonds are cleaved within 24 hours. The “activity … (p-nitroaniline liberated)” value [5] was “It showed activity to ... N-carbobenzoxy-Pro-citrulline-p-nitroanilide (CBZ-Pro-Cit)”, the “activity … (p-nitroaniline liberated)” value [6] was “It showed activity to ... N-succinyl-Ala-Ala-Ala-p-nitroanilide (AAA)” and the “activity … (p-nitroaniline liberated)” value [7] was “It showed activity to ... N-carboxybenzoxy-Phe-Val-Arg-p-nitroanilide (Z-FVR)”. For the same protein, the “activity … (p-nitroaniline liberated)” value [8] was “It showed activity to ... N-succinyl-Gly-Gly-Phe-p-nitroanilide (GGF)”, the Relative activity (%) [9] was 100% and the “activity … (p-nitroaniline liberated)” value [10] was “It showed activity to ... N-succinyl-Ala-Ala-p-nitroanilide (AA)”. It also gave a Relative activity (%) [11] of 4.6% and a Relative activity (%) [12] of 90%.
